The values below come from patent US20200095338A1.

Where only a bound is given, the exact number is not on record here.

In the test the target is IL-4R (interleukin-4 receptor) (UniProt P24394). Kind of test: cell-based or functional assay.
Chain of UniProt P24394 (P24394 26-825 limits assumed): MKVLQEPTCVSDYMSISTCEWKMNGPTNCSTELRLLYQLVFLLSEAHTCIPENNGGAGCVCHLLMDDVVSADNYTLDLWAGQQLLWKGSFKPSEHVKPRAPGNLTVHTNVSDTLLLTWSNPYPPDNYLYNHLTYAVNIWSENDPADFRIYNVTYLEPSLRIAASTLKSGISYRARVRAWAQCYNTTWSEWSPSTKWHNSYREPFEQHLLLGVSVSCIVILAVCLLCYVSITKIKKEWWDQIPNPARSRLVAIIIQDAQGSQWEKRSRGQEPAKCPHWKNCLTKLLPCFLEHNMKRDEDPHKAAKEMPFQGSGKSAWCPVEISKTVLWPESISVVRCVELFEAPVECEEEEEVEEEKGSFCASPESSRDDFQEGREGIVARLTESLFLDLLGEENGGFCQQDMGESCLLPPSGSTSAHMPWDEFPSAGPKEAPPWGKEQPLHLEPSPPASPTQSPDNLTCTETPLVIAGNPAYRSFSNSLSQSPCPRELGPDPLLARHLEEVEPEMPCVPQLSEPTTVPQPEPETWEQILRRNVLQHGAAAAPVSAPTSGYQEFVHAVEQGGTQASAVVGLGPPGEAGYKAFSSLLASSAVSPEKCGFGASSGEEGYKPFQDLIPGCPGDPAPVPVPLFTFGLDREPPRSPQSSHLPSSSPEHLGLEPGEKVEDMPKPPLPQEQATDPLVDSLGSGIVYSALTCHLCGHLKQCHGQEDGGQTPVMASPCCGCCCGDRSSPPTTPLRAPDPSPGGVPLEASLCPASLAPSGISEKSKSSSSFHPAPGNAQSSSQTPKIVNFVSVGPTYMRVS

B1: anti-IL-4R:anti-CD63 conjugate (streptavidin-conjugated anti-IL-4R antibody combined 1:1 with biotinylated anti-CD63 antibody MEM-259) (bispecific antibody, part only; not given: anti-CD63 MEM-259 antibody, constant regions, V domains shown, part only)
VH: EVQLVESGGGVVQPGRSLRLSCVASGFTFSDYGMHWVRQAPGKGLEWVAVIWYDGSIKYFRDSVKGRFTISRDNSKNTLYLQMNSLRVEDTAHYYCAKESSSWYFYHGLDVWGQGTMVTVSS
VL: EIVMTQSPLSLPVSPGEPASISCRSNQSLLHSNGNNYLAWYLQKPGQSPHLLIYLGSNRASGVPDRFSGSGSGTDFTLKISRVEAGDVGTYFCMQSLQAPPFTFGPGTKVEIKR
modifications: antibody conjugated to streptavidin
On to B1, for which the attenuation of IL-4R activity relative to the control constructs is greater than 10%.
